Assay results reported in US20170101466A1.

How the values were obtained:
[1] = target: soluble human BLyS (human) (UniProt Q9Y275); experiment: DELFIA competition, Eu-hBLyS binding to coated BR3
[2] = target: soluble mouse BLyS (mouse) (UniProt Q9WU72); experiment: DELFIA competition, Eu-mBLyS binding to coated BR3
[3] = target: soluble human BLyS (human) (UniProt Q9Y275); experiment: DELFIA competition, Eu-hBLyS binding to coated BCMA
[4] = target: soluble human BLyS (human) (UniProt Q9Y275); experiment: DELFIA competition, Eu-hBLyS binding to coated TACI
[5] = target: soluble mouse BLyS (mouse) (UniProt Q9WU72); experiment: DELFIA competition, Eu-mBLyS binding to coated BCMA
[6] = target: soluble mouse BLyS (mouse) (UniProt Q9WU72); experiment: DELFIA competition, Eu-mBLyS binding to coated TACI

Substance AMG623 has an IC50 [1] of 0.0093 nM, an IC50 [2] of 0.147 nM and an IC50 [3] of under 0.0003 nM. For the same substance, the IC50 [4] was under 0.0003 nM, the IC50 [5] was 0.0115 nM and the IC50 [6] was under 0.0003 nM.
With TACI-Ig (Fc fusion) the IC50 [1] was 0.159 nM, the IC50 [2] was 0.515 nM and the IC50 [3] was 0.112 nM. For the same substance, the IC50 [4] was 0.0127 nM, the IC50 [5] was 0.784 nM and the IC50 [6] was 0.0158 nM.
